The record followed here is patent publication US20230365679A1 (KUNMING SINOWAY NATURAL PHARMACEUTICALS, published 2023).

Substitutions are numbered along the chain they refer to.

Test [1] deals with Biotinylated Human Siglec-2/CD22 Protein, Fc, Avitag (ACROBiosystems, SI2-H82F8) (human) (UniProt P20273). The experiment in a line: ELISA, plate coated with CD22-Fc antigen; fit of a non-binding control (R2 0.1733), not meaningful. (In an ELISA, binding on a coated surface is turned into a signal by an enzyme label.)
Test [2] deals with CD22 on the cell membrane of CD22-positive cell lines (Raji, REH, CA46) (UniProt P20273). Briefly: FACS on CA46 cells; ambiguous fit, Top printed as (very wide).
For test [3] the target is unchanged. Briefly: FACS on REH cells; ambiguous fit, Top printed as (very wide).
For test [4] the target is unchanged. Briefly: FACS on Raji cells.
The target of test [5] is T1, Biotinylated Human Siglec-2/CD22 Protein, Fc, Avitag (ACROBiosystems, SI2-H82F8) (human, UniProt P20273 20-687, biotinylated (Avitag)).
T1 construct: Bought reagent; also called CD22 antigen; CD22-Fc-biotinylated antigen; not shown: Fc tag of the bought protein; Avitag
Briefly: SPR (Biacore 8K), CD22-Fc-biotin on SA chip, antibody as analyte, 1:1 binding model. The protocol: Following reagents and materials were mainly used: [0066] Antigen to be immobilized: CD22-Fc-biotinylated antigen: ACROBiosystems (ARCO)) SI2-H82F8; [0067] Antibodies to be tested: Anti-CD22 mAbs; [0068] Chip SA; [0069] Immobilization buffer: (1) 1 M NaCl/50 mM NaOH; [0070] (2) 1 M NaCl/50 mM NaOH/50% isopropanol; [0071] Running buffer: 1×HBS-EP buffer; [0072] Regeneration buffer: Glycine, pH 1.5.
Experimental steps were as follows: [0074] 1) A sensor chip SA was taken and its surface was cleaned with ultrapure water; and after dried under nitrogen, was inserted into the slot. The immobilization buffers (1) and (2) were added to the columns A1 and A2 in a 96 well plate, and 3.85 nM CD22-Fc-biotinylated antigen were added at 200 μL per well into corresponding wells in column A3, respectively. The program was set to immobilize the antigen, and the immobilization was stopped when delta RU of about 70 RU was achieved. [0075] 2) Program “binding test” was set, including association time of 250 s and dissociation time of 600 s, and a test was performed using HA22 mAb, a dissociation degree of 4-5% was shown. [0076] 3) The HA22 mAb was diluted to 1000 nM and subsequently to 100 nM, and further 2-fold diluted starting from 100 nM for 8 times, at a final volume of about 250 μL per well. The program was set up to detect the binding capacity of that antibody No. 1 to the antigen, with association time of 250 s and dissociation time of 600 s. […] [0077] 4) All the antibodies, i.e., mAb-1 to mAb-6, were diluted to 1000 nM and subsequently to 100 nM, and further 2-fold diluted starting from 100 nM for 8 times, at a final volume of about 250 μL per well. The same program as that in step 3 was set up to detect affinity in batches. Results were analyzed using Biacore 8K evaluation.
A general note: SPR reads the build-up and loss of mass on a sensor chip optically.

Test [6] addresses T2, CD22 on the cell membrane of CD22-positive cell lines (Raji, REH, CA46) (UniProt P20273 20-847, limits assumed).
T2 construct: whole, on cells; Raji and CA46: relatively high expression of CD22; REH: relatively medium expression; also called CD22 on cell membrane
Briefly: FACS on Raji cells. The protocol: (§1) Raji cells (having a relatively high expression of CD22), CA46 cells (having a relatively high expression of CD22), and REH cells (having a relatively medium expression of CD22) were selected, and the cell binding ability of the antibodies was evaluated by curves of mean fluorescence intensity versus concentration obtained through FACS.

Test [7] addresses T1, Biotinylated Human Siglec-2/CD22 …. Briefly: ELISA, plate coated with CD22-Fc antigen, anti-human Fd-HRP. The protocol: ELISA plates were coated with 200 ng/mL CD22 antigen (Biotinylated Human Siglec-2/CD22 Protein, Fc, Avitag™, ACROBiosystems (ARCO)) at 100 μl per well, at 4° C. overnight. Next day, the plates were washed with PBST, then blocked by the added blocking buffer (PBST+3% milk) at 37° C. for 1-2 hours, and then washed again with PBST.
After incubation, the plates were washed with PBST. 100 μl of 1:10000 diluted secondary antibody (Mouse anti-human IgG Fd secondary antibody, HRP; REF: SA5-10190, Invitrogen, USA) was added to each well of the ELISA plates which were then incubated at 37° C. for 1 hour. Thereafter, the plates were washed with PBST.
100 μl of TMB solution (TMB Single-Component Substrate solution, Cat #PR1200, Beijing Solarbio Science & Technology Co., Ltd.) was added to each well of the plates which were then incubated at room temperature for 15 minutes. Then 50 μl of stop buffer (ELISA stop buffer (10×), Cat #C1058, Beijing Solarbio Science & Technology Co., Ltd.) was added thereto, and the plates were shaken. Absorbance values at 450 nm were detected.

Test [8] concerns the target T2, CD22 on the cell membrane of …. Briefly: FACS on CA46 cells. The protocol: as §1
Test [9] has the same target. Briefly: FACS on REH cells. The protocol:
as §1

Test [10] shares this target. Briefly: FACS on CA46 cells; ambiguous fit, Top printed as (very wide). The protocol: as §1

Turning to Isotype control (antibody), the EC50 (usually the concentration at which the effect is half-maximal) in test [1] is 0.000154 µg/mL; in test [2], 4590 µg/mL; in test [3], 8250 µg/mL; in [4], 32.6 µg/mL.

B1: HA22 mAb (antibody, human IgG1, kappa, V domains shown)
VH: EVQLVESGGGLVKPGGSLKLSCAASGFAFSIYDMSWVRQTPEKCLEWVAYISSGGGTTYYPDTVKGRFTISRDNAKNTLYLQMSSLKSEDTAMYYCARHSGYGTHWGVLFAYWGQGTLVTVSA
VL: DIQMTQTTSSLSASLGDRVTISCRASQDISNYLNWYQQKPDGTVKLLIYYTSILHSGVPSRFSGSGSGTDYSLTISNLEQEDFATYFCQQGNTLPWTFGCGTKLEIKR
notes: also called positive antibody HA22 mAb
For the molecule B1, the Kd – broadly, the equilibrium constant for the complex coming apart – in test [5] was found to be 242 pM. Also, in test [5], the koff (commonly the rate constant with which the complex falls apart) is 8.93e-05 s⁻¹. Moreover, the kon (as a rule, a measure of how fast the partners come together) in [5] came out at 370000 M⁻¹ s⁻¹. The EC50 in test [6] was 0.152 µg/mL; in [7] it was 0.0203 µg/mL; in [8], 0.221 µg/mL; in test [9] it was 0.172 µg/mL.

B2: mAb-1 (antibody, human IgG1, kappa, V domains shown)
VH: B1 VH with K19R, T63S, D73E, T78S, S84N, L118M, A123S
VL: B1 VL
notes: Reconstructed IgG1/kappa antibody, humanized heavy chain with HA22 light chain; also called V2 HC + HA22 LC
As to B2, the Kd in test [5] amounted to 604 pM. In addition, in test [5], the koff was 0.000262 s⁻¹. The kon in [5] amounted to 434000 M⁻¹ s⁻¹. The EC50 in test [6] amounted to 0.152 µg/mL; in [7], 0.0154 µg/mL; in [8], 0.521 µg/mL; in test [9], 0.812 µg/mL.

B3: mAb-3 (antibody, human IgG1, kappa, V domains shown)
VH: B1 VH with K19R, T40A, E42G, T63S, D73E, T78S, S84N, L118M, A123S
VL: DIQMTQSTSTLSASVGDRVTITCRASQDISNYLNWYQQRPDGSVKLLIYYTSILHSGVPSRFSGSGSGTDYTLTISSLQDEDFATYFCQQGNTLPWTFGCGTKVEIKR
notes: Humanized IgG1/kappa antibody; also called V1 HC + V2 LC
For B3, in test [5], the affinity, expressed as Kd, was 713 pM; the koff is 0.000404 s⁻¹; the kon came to 567000 M⁻¹ s⁻¹. The molecule also registered an EC50 in test [7] of 0.0139 µg/mL. In test [8], this molecule returned an EC50 of 1.61 µg/mL.

B4: mAb-5 (antibody, human IgG1, kappa, V domains shown)
VH: EVQLVESGGGLVKPGGSLRLSCAASGFAFSIYDMSWIRQAPGKCLEWVAYISSGGGTTYYPGSVKGRFTISRENAKNSLYLQMNSLRSEDTAVYYCARHSGYGTHWGVLFAYWGQGTMVTVSS
VL: B3 VL with T8P, Y36F, D41G, G42Q, V44P, K45R, D80P, F87Y
notes: Humanized IgG1/kappa antibody; also called V5 HC + V4 LC
In test [5], B4 yielded a Kd of 382 pM, a koff of 0.000411 s⁻¹ and a kon of 1.08e+06 M⁻¹ s⁻¹. Further, the EC50 in test [10] is approximately 20200 µg/mL. The molecule further returned an EC50 in [7] of 0.0163 µg/mL.

B5: mAb-4 (antibody, human IgG1, kappa, V domains shown)
VH: B4 VH with I37V, G62D, R87K, V93M
VL: B3 VL with T8P, Y36F, D41G, G42Q, V44P, K45R, D80P, F87Y
notes: Humanized IgG1/kappa antibody; also called V1 HC + V4 LC
In [5], B5 displayed a dissociation constant (Kd) of 145 pM, a koff of 9.91e-05 s⁻¹ and a kon of 685000 M⁻¹ s⁻¹. The same molecule displayed an EC50 in test [6] of 0.206 µg/mL. Besides, the EC50 in test [7] was found to be 0.0139 µg/mL. The molecule also showed an EC50 in test [8] of 0.152 µg/mL.

B6: mAb-2 (antibody, human IgG1, kappa, V domains shown)
VH: B4 VH with I37V, A40T, G42E, G62D, R87K, V93M
VL: B3 VL
notes: Humanized IgG1/kappa antibody; also called V2 HC + V2 LC
For B6, in test [5], the Kd was 470 pM, the koff worked out at 0.000177 s⁻¹ and the kon is 376000 M⁻¹ s⁻¹. A half-maximal effect in [6] (EC50) was put at 0.276 µg/mL. The molecule also displayed an EC50 in [7] of 0.00906 µg/mL. The molecule also yielded an EC50 in test [8] of 0.23 µg/mL.

B7: mAb-6 (antibody, human IgG1, kappa, V domains shown)
VH: B4 VH with S88A, E89G
VL: B3 VL with T8P, Y36F, D41G, G42Q, V44P, K45R, D80P, F87Y
notes: Humanized IgG1/kappa antibody; also called V4 HC + V4 LC
As to B7, in test [5], the affinity, expressed as Kd, was 315 pM; the koff came to 0.00022 s⁻¹; the kon is 699000 M⁻¹ s⁻¹. The molecule also showed an EC50 in test [7] of 0.0104 µg/mL. Also, the EC50 in test [8] stood at 2.75 µg/mL.
